Molecular target: computationally redesigned, water-soluble variant of the human μ-opioid receptor (MOR) (human) (UniProt P35372)
Test: MoS2 field effect transistor biosensor

[D-Ala^2, N-MePhe^4, Gly-ol]-enkephalin (peptide)
Kd: 0.087 µM

Reference: paper PMC4949953
